# Results from US20220153807A1 (published 2022).
# T1: MAGE-A3 peptide on HLA-A*02:01 (human)
# T1 peptide: FLWGPRALV
# Assays:
# [1] = target: T1, MAGE-A3 peptide on HLA-A*02:01; experiment: as above, co-transfected with inhibitor construct C2106, 5 uM NY-ESO-1 peptide; full-length, on cells
# [2] = target: T1, MAGE-A3 peptide on HLA-A*02:01; experiment: as above, co-transfected with inhibitor construct C2107, 5 uM NY-ESO-1 peptide; full-length, on cells
# [3] = target: T1, MAGE-A3 peptide on HLA-A*02:01; experiment: NFAT-luciferase Jurkat cells, CT139 alone; T2 cells with titrated MAGE-A3 peptide and 50 uM NY-ESO-1 peptide; full-length, on cells
# [4] = target: T1, MAGE-A3 peptide on HLA-A*02:01; experiment: as above, co-transfected with the inhibitory CAR C1761 (NY-ESO-1 scFv, LILRB1), 50 uM NY-ESO-1 peptide; reduced against CT139 alone; full-length, on cells
binder,measurement,setting,value
"CT139, MAGE-A3 pep1 TCR (both alpha and beta chains) (TCR, V domains shown) Valpha: AQSVDQPDAHVTLSEGASLELRCSYSYSAAPYLFWYVQYPGQSLQFLLKYITGDTVVKGTKGFEAEFRKSNSSFNLKKSPAHWSDSAKYFCALEGPDTGNYKYVFGAGTRLKVIA Vbeta: DAGVTQTPRHEVAEKGQTIILKCEPVSGHNDLFWYRQTKIQGLELLSYFRSKSLMEDGGAFKDRFKAEMLNSSFSTLKIQPTEPRDSAVYLCASSFGTASAETLYFGSGTRLTVL",EC50 of peptide,[1],40 nM
same,EC50 of peptide,[2],100 nM
same,EC50 of peptide,[3],20 nM
same,EC50 of peptide,[4],> 1000 nM
